The values below come from publication PMC4629521.

The target of data set [1] is RSHpH2, RSH partially dearabinosylated by pH 2.0 HCl (Arabidopsis) (UniProt Q9FS16). Nature of the data set: cross-linking + SEC.
The target in data set [2] is P1Ara, TOMP1 partially dearabinosylated by alpha-L-arabinofuranosidase (tomato). Nature of the data set: cross-linking + SEC.
In another data set the test system is Q9FS16. Nature of the data set: cross-linking + SEC.
The target of data set [3] is RSH, monomeric extensin from Arabidopsis (native) (Arabidopsis) (UniProt Q9FS16). Put plainly: cross-linking + SEC.
Data set [4] deals with RSHAra, RSH partially dearabinosylated by alpha-L-arabinofuranosidase (Arabidopsis) (UniProt Q9FS16). Put plainly: cross-linking + SEC.
The target in data set [5] is TOMP1, tomato extensin precursor 1 (native) (tomato). Put plainly: cross-linking + SEC.
The target of data set [6] is P1pH2, TOMP1 partially dearabinosylated by pH 2.0 HCl (tomato). Nature of the data set: cross-linking + SEC.

For the substance “RSHpH2, RSH partially dearabinosylated by pH 2.0 HCl (from UniProt Q9FS16 28-431) (natural protein)”, the initial cross-linking rate in data set [1] worked out at 223 µg/mL⋅min.
Take “P1Ara, TOMP1 partially dearabinosylated by alpha-L-arabinofuranosidase (natural protein)”: the initial cross-linking rate in data set [2] was found to be 28.5 µg/mL⋅min.
For “RSHpH2, RSH partially dearabinosylated by pH 2.0 HCl”, the monomer peak area loss (5~30 min XL) with Q9FS16 was 74.2%.
The same measure, in the same setting: the value for “RSH, monomeric extensin from Arabidopsis (native)” was 80.3%.
With “TOMP1, tomato extensin precursor 1 (native)”, in the data set “cross-linking + SEC”, the monomer peak area loss (5~30 min XL) was determined as 73.9%.
For the substance “RSHAra, RSH partially dearabinosylated by alpha-L-arabinofuranosidase”, the monomer peak area loss (5~30 min XL) with Q9FS16 worked out at 40.1%.
For the substance “RSH, monomeric extensin from Arabidopsis (native) (from UniProt Q9FS16 28-431) (natural protein)”, in data set [3], the initial cross-linking rate stood at 269 µg/mL⋅min.
Regarding “P1Ara, TOMP1 partially dearabinosylated by alpha-L-arabinofuranosidase”, the monomer peak area loss (5~30 min XL) in the data set “cross-linking + SEC” turned out to be 24.9%.
“RSHAra, RSH partially dearabinosylated by alpha-L-arabinofuranosidase (from UniProt Q9FS16 28-431) (natural protein)”: in data set [4], the initial cross-linking rate was found to be 85 µg/mL⋅min.
With “P1pH2, TOMP1 partially dearabinosylated by pH 2.0 HCl”, in “cross-linking + SEC”, the monomer peak area loss (5~30 min XL) was determined as 54.2%.
As for “TOMP1, tomato extensin precursor 1 (native) (natural protein)”, the initial cross-linking rate in data set [5] was determined as 213 µg/mL⋅min.
With “P1pH2, TOMP1 partially dearabinosylated by pH 2.0 HCl (natural protein)”, in data set [6], the initial cross-linking rate amounted to 95.3 µg/mL⋅min.
